Consider three molecules from patent publication US20140206628A1 (University of Washington, published 2014).

Assay [1] addresses T1, A/South Carolina/1/1918 (H1N1) hemagglutinin ectodomain, biotinylated (Influenza A virus A/South …). In words: yeast surface display titration.
The target in assay [2] is T1, A/South Carolina/1/1918 (H1N1) …. In words: yeast surface display titration. This is another data set of the same source.

Where two headings read alike, the source gives them in different places.

B1: HB80.3_s4_E82 (designed binder)
chain: MASTRGSGRPWKFSENVAFEIALSFTNKDTPDRWAKVARYVRGRTPEEVKKHYE
As to B1, in assay [1], the binding result is “binds”.

B2: HB80.3_s4_E94 (designed binder)
chain: ASTRGSGRPWKFSENVAFELALYFTNKDTPDRWAKVARYVKGRTPEEVKKHYE
Take B2: the binding result in assay [1] is “binds”.

B3: HB36.4_s4_E11 (designed binder)
chain: MSNAMDGQQLNRLLLEWIGAWDPFGLGKDAYDVEADAVLKAVYETNSAFDLAMRIHWIYNFAFKRKIPFVHAQKLARRLLELKQAASSPLP
B3: the binding result in assay [2] is recorded as “binds”.
